Reference: patent publication EP2074145B1

How the values were obtained:
[1] = target: T1, peptide 13 (aa 13-21 of Aβ); assay: ELISA with biotinylated peptide Amyloid beta 13-21
T1 sequence (peptide, biotinylated (site not stated)): HHQKLVFFA

[2] = target: biotinylated complete Aβ1-42 peptide (Bachem) (UniProt P05067); assay: ELISA with biotinylated complete Aβ1-42 peptide
[3] = target: T1, peptide 13 (aa 13-21 of Aβ); assay: ELISA with biotinylated peptides (Mimotopes protocol)

Sequence of biotinylated complete Aβ1-42 peptide (Bachem) (P05067 672-713 limits assumed): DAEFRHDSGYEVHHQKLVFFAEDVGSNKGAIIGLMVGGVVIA

- O.D [1]: 1.23 O.D
- O.D [2]: 0.9 O.D
- percent higher affinity than to the whole Aβ1-42 protein [3]: 36%
Substance: humanized anti-human amyloid beta monoclonal antibody hC2
